Measurements from patent publication US6989364B1, “Methods for treating cardiac hypertrophy by administering IFN-γ” (Genentech, Inc., priority 1998, dated 2006).

Columns and labels:
[1] = system: adult rat cardiac myocytes; assay: Inhibition of PGF2α-induced spreading response of adult myocytes; assay type: cell-based
Procedure: Myocytes were pre-incubated with saline vehicle or IFN-γ (500 U/ml) on day of isolation. A second addition of vehicle or IFN-γ was performed 24h after isolation, along with the addition of either vehicle or PGF2α (10^−7 M). After an additional 72 hr incubation, cells were fixed in glutaraldehyde, stained with eosin Y and viewed by fluorescence microscopy. A, B, C Cardiac myocytes after 4 days in culture: control, PGF2α, and PGF2α+IFN-γ, respectively. D, E, F Histographs showing maximum breadth of rod shaped cardiac myocytes versus percent frequency of breadth occurrence. The maximum breadth of rod-shaped cells was determined by fluorescence microscopy and imaging software. At least 200 rod shaped cells from a single experiment were examined per group.
Myocytes were pre-incubated with saline vehicle or IFN-γ on day of isolation. A second amount of IFN-γ was added 24 hr after isolation, along with the addition of either vehicle or PGF2α (10^−7 M). After an additional 72 hr incubation, cells were fixed in glutaraldehyde, stained with eosin Y and viewed under fluorescence. Quantitation of myocyte morphology: A control, B PGF2α, C PGF2α+IFN-γ (25 U/ml), D PGF2α+IFN-γ (100 U/ml), E PGF2α+IFN-γ (500 U/ml). Histographs showing maximum breadth of rod shaped cardiac myocytes versus percent frequency of breadth occurrence. The maximum breadth of rod-shaped cells was determined by fluorescence microscopy and imaging software. At least 200 rod shaped cells from a single experiment were examined per group.
In this assay, ventricular myocytes are isolated from a single (male Sprague-Dawley) rat, essentially following a modification of the procedure described in detail by Piper et al., “Adult ventricular rat heart muscle cells.” In: Cell Culture Techniques in Heart and Vessel Research, H. M. Piper, ed., Berlin: Spinger-Verlag, 1990, pp. 36–60. This procedure permits the isolation of adult ventricular myocytes and the long-term culture of these cells in the rod-shaped phenotype. […] Piper et al., supra; Lai et al., Am J. Physiol. 1996; 271 (Heart Circ. Phvsiol. 40):H2197–H2208. The inhibition of myocyte spreading induced by PGF2α, or PGF2α analogs, (e.g. fluprostenol) and phenylephrine by various potential inhibitors of cardiac hypertrophy is then tested. A detailed protocol is described in the examples that follow.
Adult myocyte cultures The procedure used for the isolation of ventricular myocytes from adult rats was a modification of a procedure described by Piper et al., supra, and is detailed in Lai et al., supra. For each myocyte preparation, one male Sprague-Dawley rat weighing about 250 g was anesthetized with pentobarbital sodium, and the heart was removed. Extraneous tissue was trimmed from the heart, and it was mounted onto a Langendorff system that was temperature controlled at 37° C. The heart was perfused with about 40 ml of Krebs buffer (110 mM NaCl, 2.6 mM KCl, 1.2 mM KH2PO4, 1.2 mM MgSO4.7H2O, 25 mM NaHCO3 and 11 mM glucose). A solution containing 30 mg of collagenase and 12.5 μl of 100 mM CaCl2 in 50 ml of Krebs buffer was then recirculated through the heart for 30 minutes. The heart was removed from the Langendorff apparatus, and the atria and connective tissues were removed. The ventricles were cut into 2 mm cubes with dissecting scissors, and further digested in a fresh collagenase solution (30 mg collagenase and 400 mg BSA dissolved in Krebs buffer with 12.5 μl of 100 mM CaCl2) for five minutes at 37° C. During the digestion, the tissue suspension was gently band shaken one time per minute. After the digestion, the supernatant was removed and saved, and the remaining tissue was further digested in fresh collagenase solution for an additional five minutes.

[2] = system: rats with pressure overload; assay: Pressure overload (abdominal aortic banding) cardiac hypertrophy: body and organ weights; assay type: in vivo, rat
Procedure: For in vivo testing it is common to induce pressure-overload cardiac hypertrophy by constriction of the abdominal aorta of test animals. In a typical protocol rats (e.g. male Wistar or Sprague-Dawley) are treated under anesthesia, and the abdominal aorta of each rat is narrowed down just below the diaphragm. Beznak M., Can. J. Biochem. Physiol. 33, 985–94 (1955). The aorta is exposed through a surgical incision, and a blunted needle is placed next to the vessel. The aorta is constricted with a ligature of wool thread around the needle, which is immediately removed and which reduces the lumen of the aorta to the diameter of the needle. This approach is described, for example, in Rossi et al., Am. Heart J. 124, 700–709 (1992) and O'Rourke and Reibel, P.S.E.M.B. 200, 95–100 (1992). A detailed description of the protocol used by the present inventors is disclosed in the examples hereinbelow.
Animal model of pressure overload The induction of pressure overload by partial ligation of the abdominal aorta in rats was as described previously. Kimura et al., Am. J. Physiol. 1989:256 (Heart Circ. Physiol. 25):H1006–H1-11; Batra et al., J. Cardiovasc. Pharmacol. 17(suppl. 2), S151–S153 (1991). In brief, rats were anesthesized with ketamine/xylazine as described above. A 3 cm midline incision was made in the abdominal wall. The abdominal aorta between the diaphragm and the renal artery was exposed and looped with 5–0 silk suture. The suture was tightened around a gauge 23 needle, and then the needle was withdrawn. Sham animals received the surgery without tightening the suture.
Experimental protocol in rats with pressure overload The rats with aortic banding randomly received subcutaneous injection of IFN-γ at 0.08 mg/k twice a day for one day before surgery and for 14 days after surgery. Sham animals were not treated. Thirteen days after treatment, a catheter was implanted into the right carotid artery under anesthesia as indicated above. One day after implantation, arterial pressure and HR were measured in conscious rats. The heart and other organs including the liver, kidney, and spleen were removed, weighed, and fixed in 10% buffered formalin for pathological studies. The left ventricle was quickly dissected and frozen with liquid nitrogen in some animals and stored at −80° C. for assessment of gene expression.
Statistical analyisis Results are expressed as mean±SEM. One way analysis of variance (ANOVA) was performed to assess differences in parameters between groups. Significant differences were then subjected to post hoc analysis using Newman-Keuls method; P<0.05 was considered significant.

[3] = pressure overload, IFN-γ 0.08 mg/kg s.c. twice a day, 1 day before and 14 days after surgery, mean ± SEM

IFN-γ: recombinant mouse IFN-γ (Genentech, Inc., South San Francisco, Calif., or Genzyme, Cambridge, Mass.)
Dose dependence of the inhibitory effect on PGF2α-induced myocyte spreading ([1]; IFN-γ 25, 100, 500 U/ml, PGF2α 10^−7 M): dose dependent
Inhibition of PGF2α-induced myocyte spreading (maximum cell breadth of rod shaped cells) ([1]; IFN-γ 500 U/ml, PGF2α 10^−7 M, 72 hr, P<0.001 vs PGF2α): significantly inhibited their response to PGF2α
Effect of the substance alone on morphology of the cells ([1]; IFN-γ alone, 500 U/ml, no PGF2α): had no observable effect on the morphology of the cells
Effect on cardiac hypertrophy induced by pressure overload (heart, atrial, ventricular, left ventricular weights and ratios to BW) ([2]; aortic banding, IFN-γ vs vehicle, Table 2, FIGS. 7 and 8): significantly attenuated cardiac hypertrophy
BWO, basal levels of body weight ([2]; pressure overload rats, before treatment, mean ± SEM): 279.0 ± 1.3 g
AW, atrial weight [2, 3]: .046 ± .003 g
AW/BW, atrial weight to body weight [2, 3]: .129 ± .007 g/kg
BW, body weight post treatment [2, 3]: 355.5 ± 5.2 g
KW, kidney weight [2, 3]: 1.349 ± .071 g
KWBW [2, 3]: 3.776 ± .071 g/kg
LW, liver weight [2, 3]: 13.96 ± .47 g
LW/BW, liver weight to body weight [2, 3]: 38.94 ± .92 g/kg
SW, spleen weight [2, 3]: 1.170 ± .053 g
SW/BW, spleen weight to body weight [2, 3]: 3.261 ± .121 g/kg
ΔBW, BW-BWO [2, 3]: 76.5 ± 4.7 g
